The source of these data is US11814435B2, “Therapeutic antibodies and their uses” (PFIZER INC., priority 2015, dated 2023).

B1: L3.PY/L1.AH/H3.AE: anti-BCMA antibody (antibody, V domains shown)
VH: EVQLLESGGGLVQPGGSLRLSCAASGFTFGSYAMTWVRQAPGKGLEWVSAISGSGGNTFYADSVKGRFTISRDNSKNTLYLQMNSLRAEDTAVYYCARVSPIAAEMDYWGQGTLVTVSS
VL: EIVLTQSPGTLSLSPGERATLSCRASQSVSAHYLAWYQQKPGQAPRLLIYGASSRATGIPDRFSGSGSGTDFTLTISRLEPEDFAVYYCQHYPYPPSFTFGQGTKVEIK
B2: L3.PY/L3.KY/H2.DY: anti-BCMA antibody (antibody, V domains shown)
VH: B1 VH with S52D, G53Y, A104S, E105G
VL: B1 VL with A31S, H32S, Q90K, H91Y
B3: L3.PY/L1.PH/H2.HA: anti-BCMA antibody (antibody, V domains shown)
VH: B1 VH with G53H, S54A, A104S, E105G
VL: B1 VL with A31P
B4: L3.PY/L1.FF/H3.AE: anti-BCMA antibody (antibody, V domains shown)
VH: B1 VH
VL: B1 VL with A31S, H32F, Y33F
B5: L3.PY/L1.FF/H2.DY: anti-BCMA antibody (antibody, V domains shown)
VH: B1 VH with S52D, G53Y, A104S, E105G
VL: B1 VL with A31S, H32F, Y33F
B6: L3.PY/L1.PH/H3.TAQ: anti-BCMA antibody (antibody, V domains shown)
VH: B1 VH with A97T, E105Q
VL: B1 VL with A31P
B7: L3.PY/L3.KY/H2.LT: anti-BCMA antibody (antibody, V domains shown)
VH: B1 VH with G53L, S54T, A104S, E105G
VL: B1 VL with A31S, H32S, Q90K, H91Y
B8: L3.PY/L1.FF/H2.LT: anti-BCMA antibody (antibody, V domains shown)
VH: B1 VH with G53L, S54T, A104S, E105G
VL: B1 VL with A31S, H32F, Y33F
B9: L3.PY/L1.PH/H2.QR: anti-BCMA antibody (antibody, V domains shown)
VH: B1 VH with S63Q, V64R, A104S, E105G
VL: B1 VL with A31P
B10: L3.PY/L1.FF/H2.QL: anti-BCMA antibody (antibody, V domains shown)
VH: B1 VH with S63Q, V64L, A104S, E105G
VL: B1 VL with A31S, H32F, Y33F
B11: L3.PY/L1.FF/H2.HA: anti-BCMA antibody (antibody, V domains shown)
VH: B1 VH with G53H, S54A, A104S, E105G
VL: B1 VL with A31S, H32F, Y33F
B12: L3.PY/L1.FF/H3.TAQ: anti-BCMA antibody (antibody, V domains shown)
VH: B1 VH with A97T, E105Q
VL: B1 VL with A31S, H32F, Y33F
B13: L3.PY/L1.AH/H3.TAQ: anti-BCMA antibody (antibody, V domains shown)
VH: B1 VH with A97T, E105Q
VL: B1 VL
B14: L3.PY/L1.FF/H2.QR: anti-BCMA antibody (antibody, V domains shown)
VH: B1 VH with S63Q, V64R, A104S, E105G
VL: B1 VL with A31S, H32F, Y33F
B15: L3.PY/L3.KY/H2.HA: anti-BCMA antibody (antibody, V domains shown)
VH: B1 VH with G53H, S54A, A104S, E105G
VL: B1 VL with A31S, H32S, Q90K, H91Y
B16: L3.PY/L3.KY/H2.YQ: anti-BCMA antibody (antibody, V domains shown)
VH: B1 VH with G53Y, S54Q, A104S, E105G
VL: B1 VL with A31S, H32S, Q90K, H91Y
B17: L3.PY/L1.FF/H2.YQ: anti-BCMA antibody (antibody, V domains shown)
VH: B1 VH with G53Y, S54Q, A104S, E105G
VL: B1 VL with A31S, H32F, Y33F
B18: L3.PY/L3.KY/H2.QR: anti-BCMA antibody (antibody, V domains shown)
VH: B1 VH with S63Q, V64R, A104S, E105G
VL: B1 VL with A31S, H32S, Q90K, H91Y
B19: L3.PY/L1.PH/H3.AE: anti-BCMA antibody (antibody, V domains shown)
VH: B1 VH
VL: B1 VL with A31P
B20: L3.PY/L1.FF/H3.YA: anti-BCMA antibody (antibody, V domains shown)
VH: B1 VH with A103Y, E105G
VL: B1 VL with A31S, H32F, Y33F

Changes are numbered by the printed parent chain.

The target of the first experiment is T1, hBCMA (human BCMA) (Homo sapiens, UniProt Q02223).
T1 sequence (Q02223 1-184): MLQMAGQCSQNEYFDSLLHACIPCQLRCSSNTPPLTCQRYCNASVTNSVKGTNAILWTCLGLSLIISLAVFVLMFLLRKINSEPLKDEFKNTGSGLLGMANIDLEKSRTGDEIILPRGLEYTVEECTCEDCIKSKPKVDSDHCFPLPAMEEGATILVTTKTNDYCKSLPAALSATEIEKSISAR
The experiment is described as follows: Kinetics and affinity of hBCMA/human IgG interactions by SPR (Bio-Rad Proteon XPR36). The note with it: huBCMA, 37° C. Format: binding. In a few lines: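 Anti-BCMA IgGs were amine-coupled to a GLC chip, and hBCMA analyte was injected as a single-cycle kinetic titration (0.08, 0.4, 2, 10, 50 nM; 2 min each) at 37° C. or 25° C. in HBS-T+ pH 7.4 with 1 mg/mL BSA. Dissociation was followed 2 hours, with double-referenced 1:1 Langmuir-plus-mass-transport fitting.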
In the case of B1, the “ka (1/Ms) huBCMA @ 37° C.” value is 3.32e+06 M⁻¹ s⁻¹ and the “kd (1/s) huBCMA @37° C.” value was found to be 0.00173 s⁻¹.

For the molecule B2, the “ka (1/Ms) huBCMA @ 37° C.” value stood at 3.19e+06 M⁻¹ s⁻¹ and the “kd (1/s) huBCMA @37° C.” value stood at 0.000642 s⁻¹.

For B3, the “ka (1/Ms) huBCMA @ 37° C.” value turned out to be 2.37e+06 M⁻¹ s⁻¹ and the “kd (1/s) huBCMA @37° C.” value came out at 0.00116 s⁻¹.

Consider B4, for which the “ka (1/Ms) huBCMA @ 37° C.” value was 3.82e+06 M⁻¹ s⁻¹ and the “kd (1/s) huBCMA @37° C.” value stood at 0.00263 s⁻¹.

For B5, the “ka (1/Ms) huBCMA @ 37° C.” value is 4.14e+06 M⁻¹ s⁻¹ and the “kd (1/s) huBCMA @37° C.” value came to 0.00271 s⁻¹.

As to B6, the “ka (1/Ms) huBCMA @ 37° C.” value is 3.58e+06 M⁻¹ s⁻¹ and the “kd (1/s) huBCMA @37° C.” value is 0.00213 s⁻¹.

With B7, the “ka (1/Ms) huBCMA @ 37° C.” value is 2.92e+06 M⁻¹ s⁻¹ and the “kd (1/s) huBCMA @37° C.” value worked out at 0.000906 s⁻¹.

Consider B8, for which the “ka (1/Ms) huBCMA @ 37° C.” value amounted to 3.3e+06 M⁻¹ s⁻¹ and the “kd (1/s) huBCMA @37° C.” value was 0.00167 s⁻¹.

Turning to B9, the “ka (1/Ms) huBCMA @ 37° C.” value stood at 3.69e+06 M⁻¹ s⁻¹ and the “kd (1/s) huBCMA @37° C.” value worked out at 0.00236 s⁻¹.

B10: the “ka (1/Ms) huBCMA @ 37° C.” value was determined as 3.48e+06 M⁻¹ s⁻¹ and the “kd (1/s) huBCMA @37° C.” value came to 0.0014 s⁻¹.

On to B11, for which the “ka (1/Ms) huBCMA @ 37° C.” value amounted to 3.49e+06 M⁻¹ s⁻¹ and the “kd (1/s) huBCMA @37° C.” value was 0.00219 s⁻¹.

In the case of B12, the “ka (1/Ms) huBCMA @ 37° C.” value worked out at 3.52e+06 M⁻¹ s⁻¹ and the “kd (1/s) huBCMA @37° C.” value is 0.00189 s⁻¹.

Consider B13, for which the “ka (1/Ms) huBCMA @ 37° C.” value is 3.27e+06 M⁻¹ s⁻¹ and the “kd (1/s) huBCMA @37° C.” value came out at 0.00119 s⁻¹.

Regarding B14, the “ka (1/Ms) huBCMA @ 37° C.” value was found to be 3.47e+06 M⁻¹ s⁻¹ and the “kd (1/s) huBCMA @37° C.” value worked out at 0.00177 s⁻¹.

Take B15: the “ka (1/Ms) huBCMA @ 37° C.” value came to 3.29e+06 M⁻¹ s⁻¹ and the “kd (1/s) huBCMA @37° C.” value turned out to be 0.00163 s⁻¹.

As for B16, the “ka (1/Ms) huBCMA @ 37° C.” value came to 2.14e+06 M⁻¹ s⁻¹ and the “kd (1/s) huBCMA @37° C.” value worked out at 0.00165 s⁻¹.

Take B17: the “ka (1/Ms) huBCMA @ 37° C.” value stood at 3.32e+06 M⁻¹ s⁻¹ and the “kd (1/s) huBCMA @37° C.” value was 0.00152 s⁻¹.

Turning to B18, the “ka (1/Ms) huBCMA @ 37° C.” value stood at 2.95e+06 M⁻¹ s⁻¹ and the “kd (1/s) huBCMA @37° C.” value is 0.00099 s⁻¹.

In the case of B19, the “ka (1/Ms) huBCMA @ 37° C.” value is 3.68e+06 M⁻¹ s⁻¹ and the “kd (1/s) huBCMA @37° C.” value worked out at 0.00134 s⁻¹.

B20: the “ka (1/Ms) huBCMA @ 37° C.” value amounted to 3.5e+06 M⁻¹ s⁻¹ and the “kd (1/s) huBCMA @37° C.” value is 0.0018 s⁻¹.

Another experiment deals with cyBCMA. Briefly: Kinetics and affinity of cyBCMA/human IgG interactions by SPR (Bio-Rad Proteon XPR36). Format: binding, cynomolgus. The note with it: 37° C.
In the case of B1, the “ka (1/Ms) cyBCMA @ 37° C.” value is 2.25e+06 M⁻¹ s⁻¹ and the “kd (1/s) cyBCMA @37° C.” value was 0.00356 s⁻¹.

With B2, the “ka (1/Ms) cyBCMA @ 37° C.” value is 1.96e+06 M⁻¹ s⁻¹ and the “kd (1/s) cyBCMA @37° C.” value turned out to be 0.00243 s⁻¹.

For the molecule B3, the “ka (1/Ms) cyBCMA @ 37° C.” value was 1.61e+06 M⁻¹ s⁻¹ and the “kd (1/s) cyBCMA @37° C.” value turned out to be 0.00553 s⁻¹.

For the molecule B4, the “ka (1/Ms) cyBCMA @ 37° C.” value amounted to 2.85e+06 M⁻¹ s⁻¹ and the “kd (1/s) cyBCMA @37° C.” value came out at 0.00501 s⁻¹.

On to B5, for which the “ka (1/Ms) cyBCMA @ 37° C.” value is 2.66e+06 M⁻¹ s⁻¹ and the “kd (1/s) cyBCMA @37° C.” value came to 0.005 s⁻¹.

As for B6, the “ka (1/Ms) cyBCMA @ 37° C.” value is 2.51e+06 M⁻¹ s⁻¹ and the “kd (1/s) cyBCMA @37° C.” value was found to be 0.0032 s⁻¹.

Take B7: the “ka (1/Ms) cyBCMA @ 37° C.” value turned out to be 1.82e+06 M⁻¹ s⁻¹ and the “kd (1/s) cyBCMA @37° C.” value stood at 0.00232 s⁻¹.

With B8, the “ka (1/Ms) cyBCMA @ 37° C.” value turned out to be 2.19e+06 M⁻¹ s⁻¹ and the “kd (1/s) cyBCMA @37° C.” value is 0.00341 s⁻¹.

Consider B9, for which the “ka (1/Ms) cyBCMA @ 37° C.” value is 2.42e+06 M⁻¹ s⁻¹ and the “kd (1/s) cyBCMA @37° C.” value was found to be 0.00436 s⁻¹.

Consider B10, for which the “ka (1/Ms) cyBCMA @ 37° C.” value was 2.36e+06 M⁻¹ s⁻¹ and the “kd (1/s) cyBCMA @37° C.” value was 0.00449 s⁻¹.

For B11, the “ka (1/Ms) cyBCMA @ 37° C.” value was determined as 2.33e+06 M⁻¹ s⁻¹ and the “kd (1/s) cyBCMA @37° C.” value was 0.00417 s⁻¹.

Take B12: the “ka (1/Ms) cyBCMA @ 37° C.” value worked out at 2.32e+06 M⁻¹ s⁻¹ and the “kd (1/s) cyBCMA @37° C.” value came to 0.00376 s⁻¹.

In the case of B13, the “ka (1/Ms) cyBCMA @ 37° C.” value stood at 2.28e+06 M⁻¹ s⁻¹ and the “kd (1/s) cyBCMA @37° C.” value is 0.00302 s⁻¹.

Consider B14, for which the “ka (1/Ms) cyBCMA @ 37° C.” value was 2.55e+06 M⁻¹ s⁻¹ and the “kd (1/s) cyBCMA @37° C.” value is 0.00421 s⁻¹.

On to B15, for which the “ka (1/Ms) cyBCMA @ 37° C.” value turned out to be 2.28e+06 M⁻¹ s⁻¹ and the “kd (1/s) cyBCMA @37° C.” value was determined as 0.00318 s⁻¹.

For B16, the “ka (1/Ms) cyBCMA @ 37° C.” value was found to be 1.27e+06 M⁻¹ s⁻¹ and the “kd (1/s) cyBCMA @37° C.” value came out at 0.00258 s⁻¹.

Turning to B17, the “ka (1/Ms) cyBCMA @ 37° C.” value is 2.19e+06 M⁻¹ s⁻¹ and the “kd (1/s) cyBCMA @37° C.” value was 0.00326 s⁻¹.

On to B18, for which the “ka (1/Ms) cyBCMA @ 37° C.” value is 2.05e+06 M⁻¹ s⁻¹ and the “kd (1/s) cyBCMA @37° C.” value was 0.00774 s⁻¹.

As for B19, the “ka (1/Ms) cyBCMA @ 37° C.” value was 2.61e+06 M⁻¹ s⁻¹ and the “kd (1/s) cyBCMA @37° C.” value worked out at 0.00202 s⁻¹.

As for B20, the “ka (1/Ms) cyBCMA @ 37° C.” value stood at 2.46e+06 M⁻¹ s⁻¹ and the “kd (1/s) cyBCMA @37° C.” value stood at 0.00416 s⁻¹.
